According to paper PMC3797752:

Legend:
[1] = molecular target: wild-type SF162 gp140 (cleavage-defective) (HIV-1 SF162); experiment: not stated; oligomeric state of the purified glycoproteins; method not given
[2] = molecular target: 22-mer tyrosine-sulfated biotinylated N-terminal CCR5 peptide; experiment: SPR; qualitative; ~5000 RU of biotinylated CCR5 peptide on an SA chip; 100 nM gp120 proteins injected at 10 µl/min, alone or pre-incubated with 2-fold molar excess of sCD4; 25°C; HBS-EP buffer; compared at time = 300 s
soluble CD4 (sCD4) = soluble CD4 (sCD4) (UniProt P01730); experiment: SPR; BIAcore 3000; ~200 RU of sCD4 or mAb immobilised directly on a CM5 chip via amine coupling; varying concentrations of gp120 injected at 80 µl/min; 25°C; HBS-EP buffer; 1:1 Langmuir fit

## wild-type SF162 gp140 (cleavage-defective) (natural protein)
[1]
  stoichiometry N: 3

## gp120+sCD4 (sCD4-liganded, wild-type gp120) (from UniProt P01730) (complex)
[2]
  fold better binding than gp120: > 10 fold

## wild-type SF162 gp120 (natural protein)
Soluble CD4 (sCD4)
  Kd: 24.5 nM
